The source of these data is patent US11365264B2, “Therapeutic methods and compositions” (INSTITUT PASTEUR, priority 2013, dated 2022).

Data set [1] is described as follows: Enz Check PLA2 enzymatic assay. The note with it: for enzymatic activity (in words): recombinant PLA2 proteins produced in E. coli; for enzymatic activity of mutant vs recombinant porcine PLA2 GIB: each protein at 200 microM, FIG. 12.
Protocol: The assay was performed with the Enz Check PLA2 assay kit from Life Technologies (ref.: E102147). […] The PLA2 activity is followed by the intensity increase of a single wavelength at 515 nm. PLA2 is detected by changes in the emission intensity ratio at 515/575 nm with excitation at 460 nm. Specific activities are expressed in amount of fluorescent substrate (U) obtained per second and per μg of enzyme in solution.
Each protein was used at 200 microM.
In data set [2] the test system is purified HD CD4 T cells. As to the kind of experiment: Inhibition of IL-7-induced STAT5 phosphorylation and nuclear translocation. It is filed as cell-based, human. To be noted: for effect on IL-7 induced nuclear translocation of phosphoSTAT5 (NT pSTAT5): CD4 T cells, IL-7 stimulation. As to the method:
CD4 T-cells were purified by negative selection as already described (10) then activated with 2 nM recombinant glycosylated human IL-7 (Cytheris) or 40 μg PHA (Sigma). The confocal and STED microscopy used to study cell surface microdomains (MMD) and phospho-STAT5 cellular compartment distribution has already been described (10, 12). FCS analysis of protein diffusion at the surface of living cells has also been described (10, 12
Cells were then plated on polylysine-coated glass slides for 10 min then activated by 15 min IL-7 (2 nM) or not for control (NS), then fixed by PFA (PFA, 1.5%, 15 min at 37° C. followed by 15 min at room temperature) and permeabilization by methanol (90% at −20° C.). Cells were equilibrated one hour in PBS/SVF 5% then phospho-STAT5 was then stained by rabbit anti-STAT5 labelled with goat anti-rabbit-Atto642 and analyzed by FACS or STED microscopy.
VP plasma containing PLA2sGIB was first incubated with purified HD CD4 T cells (20 min) before stimulation by IL-7 (2 nM, 15 min.). Cells were then plated on polylysine coated glass slides before fixation by PFA (1.5%) and permeabilization by methanol (90% at −20° C.). pSTAT5 was then stained by rabbit anti-STAT5 labelled with goat anti-rabbit-Atto642 and analyzed by FACS or pulsed STED microscopy.

The subject of data set [3] is purified HD CD4 T cells. It is filed as cell-based, human.
A further data set addresses T1, human GIBsPLA2 (Homo sapiens, UniProt P04054).
T1 construct: from tissue
Kind of data set: Inhibitor test: inhibition of IL-7-induced pSTAT5 nuclear translocation by viremic plasma or PLA2 GIB. To be noted: 100 nM inhibitor, human PLA2G1B, FIG. 16. It is filed as cell-based.

T1 sequence (P04054 23-148): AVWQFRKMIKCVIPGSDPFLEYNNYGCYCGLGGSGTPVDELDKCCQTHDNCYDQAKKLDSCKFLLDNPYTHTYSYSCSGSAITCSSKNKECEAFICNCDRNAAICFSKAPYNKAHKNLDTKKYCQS

For the molecule “hPLA2 IB: recombinant human PLA2 IB (in E. coli)”, in data set [1], the Specific activity was 10694.57 U/ug/s and the “enzymatic activity (in words)” value is “potent enzymatic activity”.
In turn, “ppPLA2 IB: Purified porcine pancreas PLA2 IB” returned a Specific activity in data set [1] of 7694.31 U/ug/s.
The molecule “pPLA2 IB: recombinant porcine PLA2 IB (in E. coli)” showed a Specific activity in data set [1] of 10353.57 U/ug/s.
For “mutant H48Q: porcine PLA2 GIB mutant, histidine at position 48 replaced by glutamine, produced in E. coli”, the “effect on IL-7 induced nuclear translocation of phosphoSTAT5 (NT pSTAT5)” value with purified HD CD4 T cells [2] is reported as “lost the ability”. In addition, in the data set with purified HD CD4 T cells [3], the “induction of abnormal membrane microdomains (aMMD)” value is “lost the ability”. Besides, the results for the “enzymatic activity of mutant vs recombinant porcine PLA2 GIB” value in data set [1] and in data set [1] (listed as pPLA2GIB H48Q) were “lost all of its enzymatic activity” and “Absence of activity”, respectively.
For the molecule “commercial purified porcine GIBsPLA2: commercial purified porcine GIBsPLA2”, the “effect on IL-7 induced nuclear translocation of phosphoSTAT5 (NT pSTAT5)” value in the data set with purified HD CD4 T cells [2] is recorded as “block IL-7 pSTAT5 nuclear translocation”. Further, the “induction of abnormal membrane microdomains (aMMD)” value with purified HD CD4 T cells [3] is “induces abnormal MDM”.
Consider “hPLA2 IID: recombinant human PLA2 IID (E. coli)”, for which, in data set [1], the Specific activity worked out at 445.21 U/ug/s and the “enzymatic activity (in words)” value is “not active”.

B1: hPLA2 X: recombinant human PLA2 X (in E. coli) (protein, UniProt O15496 43-165, looked up)
Group 10 secretory …: GILELAGTVGCVGPRTPIAYMKYGCFCGLGGHGQPRDAIDWCCHGHDCCYTRAEEAGCSPKTERYSWQCVNQSVLCGPAENKCQELLCKCDQEIANCLAQTEYNLKYLFYPQFLCEPDSPKCD
B1: in data set [1], the Specific activity was found to be 3318.97 U/ug/s and the “enzymatic activity (in words)” value was “very limited activity”.

B2: IL-7: recombinant glycosylated human IL-7 (Cytheris) (protein, UniProt P13232 26-177, looked up)
Interleukin-7: DCDIEGKDGKQYESVLMVSIDQLLDSMKEIGSNCLNNEFNFFKRHICDANKEGMFLFRAARKLRQFLKMNSTGDFDLHLLKVSEGTTILLNCTGQVKGRKPAALGEAQPTKSLEENKSLKEQKKLNDLCFLKRLLQEIKTCWNKILMGTKEH
modifications: glycosylated
In the case of B2, the “phospho-STAT5 found in the nucleus” value in the data set on purified HD CD4 T cells [2] (HD CD4 T cells, five minutes following IL-7 stimulation) was found to be 50%. In the data set with purified HD CD4 T cells [3], the MMD size was 90 nm and the “number of MMD per CD4 T cell” value stood at 300 MMD/cell.

B3: recombinant PLA2 soluble receptor: soluble murine receptor specific for PLA2 GIB, SEQ ID NO: 22 (protein)
chain: MVQWLAMLQLLWLQQLLLLGIHQGIAQDLTHIQEPSLEWRDKGIFIIQSESLKTCIQAGKSVLTLENCKQPNEHMLWKWVSDDHLFNVGGSGCLGLNISALEQPLKLYECDSTLISLRWHCDRKMIEGPLQYKVQVKSDNTVVARKQIHRWIAYTSSGGDICEHPSRDLYTLKGNAHGMPCVFPFQFKGHWHHDCIREGQKEHLLWCATTSRYEEDEKWGFCPDPTSMKVFCDATWQRNGSSRICYQFNLLSSLSWNQAHSSCLMQGGALLSIADEDEEDFIRKHLSKVVKEVWIGLNQLDEKAGWQWSDGTPLSYLNWSQEITPGPFVEHHCGTLEVVSAAWRSRDCESTLPYICKRDLNHTAQGILEKDSWKYHATHCDPDWTPFNRKCYKLKKDRKSWLGALHSCQSNDSVLMDVASLAEVEFLVSLLRDENASETWIGLSSNKIPVSFEWSSGSSVIFTNWYPLEPRILPNRRQLCVSAEESDGRWKVKDCKERLFYICKKAGQVPADEQSGCPAGWERHGRFCYKIDTVLRSFEEASSGYYCSPALLTITSRFEQAFITSLISSVAEKDSYFWIALQDQNNTGEYTWKTVGQREPVQYTYWNTRQPSNRGGCVVVRGGSSLGRWEVKDCSDFKAMSLCKTPVKIWEKTELEERWPFHPCYMDWESATGLASCFKVFHSEKVLMKRSWREAEAFCEEFGAHLASFAHIEEENFVNELLHSKFNWTQERQFWIGFNRRNPLNAGSWAWSDGSPVVSSFLDNAYFEEDAKNCAVYKANKTLLPSNCASKHEWICRIPRDVRPKFPDWYQYDAPWLFYQNAEYLFHTHPAEWATFEFVCGWLRSDFLTIYSAQEQEFIHSKIKGLTKYGVKWWIGLEEGGARDQIQWSNGSPVIFQNWDKGREERVDSQRKRCVFISSITGLWGTENCSVPLPSICKRVKIWVIEKEKPPTQPGTCPKGWLYFNYKCFLVTIPKDPRELKTWTGAQEFCVAKGGTLVSIKSELEQAFITMNLFGQTTNVWIGLQSTNHEKWVNGKPLVYSNWSPSDIINIPSYNTTEFQKHIPLCALMSSNPNFHFTGKWYFDDCGKEGYGFVCEKMQDTLEHHVNVSDTSAIPSTLEYGNRTYKIIRGNMTWYAAGKSCRMHRAELASIPDAFHQAFLTVLLSRLGHTHWIGLSTTDNGQTFDWSDGTKSPFTYWKDEESAFLGDCAFADTNGRWHSTACESFLQGAICHVVTETKAFEHPGLCSETSVPWIKFKGNCYSFSTVLDSRSFEDAHEFCKSEGSNLLAIRDAAENSFLLEELLAFGSSVQMVWLNAQFDNNNKTLRWFDGTPTEQSNWGLRKPDMDHLKPHPCVVLRIPEGIWHFTPCEDKKGFICKMEAGIPAVTAQPEKGLSHSIVPVTVTLTLIIALGIFMLCFWIYKQKSDIFQRLTGSRGSYYPTLNFSTAHLEENILISDLEKNTNDEEVRDAPATESKRGHKGRPICISP
modifications: soluble receptor
As to B3, the “effect on activity of PLA2sGIB on NT of pSTAT5” value was “significantly block the negative effect of PLA2sGIB on the NT of pSTAT5” in the data set with human GIBsPLA2 and “inhibits the activity of human PLA2G1B” with human GIBsPLA2 (listed as sMR).

B4: hPLA2 IIA: recombinant human PLA2 IIA (in E. coli) (protein, UniProt P14555 21-144, looked up)
Phospholipase A2, membrane …: NLVNFHRMIKLTTGKEAALSYGFYGCHCGVGGRGSPKDATDRCCVTHDCCYKRLEKRGCGTKFLSYKFSNSGSRITCAKQDSCRSQLCECDKAAATCFARNKTTYNKKYQYYSNKHCRGSTPRC
On to B4, for which, in data set [1], the Specific activity stood at 214.93 U/ug/s and the “enzymatic activity (in words)” value was “not active”.
